Where a chain is given by its changes, count along the chain named.
T1: human NPR2 on CHO cells (human, UniProt P20594 23-1047)
T1 sequence (looked up): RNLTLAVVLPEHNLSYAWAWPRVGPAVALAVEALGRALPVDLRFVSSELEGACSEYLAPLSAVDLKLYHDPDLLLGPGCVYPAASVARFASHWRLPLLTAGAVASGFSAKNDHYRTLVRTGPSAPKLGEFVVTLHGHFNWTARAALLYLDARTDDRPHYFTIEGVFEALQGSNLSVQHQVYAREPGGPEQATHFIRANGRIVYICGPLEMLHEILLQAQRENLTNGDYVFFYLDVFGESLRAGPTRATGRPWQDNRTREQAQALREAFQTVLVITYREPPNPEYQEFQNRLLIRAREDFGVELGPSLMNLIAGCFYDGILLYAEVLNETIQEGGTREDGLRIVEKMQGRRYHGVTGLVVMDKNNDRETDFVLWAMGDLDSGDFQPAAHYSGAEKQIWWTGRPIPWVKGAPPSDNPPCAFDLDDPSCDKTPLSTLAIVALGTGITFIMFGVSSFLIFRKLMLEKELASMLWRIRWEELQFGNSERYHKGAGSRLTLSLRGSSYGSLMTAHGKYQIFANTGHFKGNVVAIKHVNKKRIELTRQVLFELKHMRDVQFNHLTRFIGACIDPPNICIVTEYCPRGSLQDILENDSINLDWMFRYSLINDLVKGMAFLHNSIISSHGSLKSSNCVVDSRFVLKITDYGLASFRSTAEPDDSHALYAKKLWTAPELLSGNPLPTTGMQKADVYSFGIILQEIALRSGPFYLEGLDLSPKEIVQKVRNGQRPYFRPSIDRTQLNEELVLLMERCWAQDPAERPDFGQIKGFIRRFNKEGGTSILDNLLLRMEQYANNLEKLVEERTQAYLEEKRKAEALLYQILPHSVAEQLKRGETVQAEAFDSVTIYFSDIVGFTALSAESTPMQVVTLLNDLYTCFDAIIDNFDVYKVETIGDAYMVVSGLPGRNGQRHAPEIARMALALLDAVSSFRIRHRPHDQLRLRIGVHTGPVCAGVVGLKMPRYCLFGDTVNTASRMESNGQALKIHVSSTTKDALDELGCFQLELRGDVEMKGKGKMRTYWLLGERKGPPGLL

T2: rNPR1-ANP complex (rat, UniProt P01160 124-151 (human entry), limits assumed)
T2 construct: rNPR1 antigen in the presence of ANP; also called rNPR1 + 100 nM ANP
T2 sequence: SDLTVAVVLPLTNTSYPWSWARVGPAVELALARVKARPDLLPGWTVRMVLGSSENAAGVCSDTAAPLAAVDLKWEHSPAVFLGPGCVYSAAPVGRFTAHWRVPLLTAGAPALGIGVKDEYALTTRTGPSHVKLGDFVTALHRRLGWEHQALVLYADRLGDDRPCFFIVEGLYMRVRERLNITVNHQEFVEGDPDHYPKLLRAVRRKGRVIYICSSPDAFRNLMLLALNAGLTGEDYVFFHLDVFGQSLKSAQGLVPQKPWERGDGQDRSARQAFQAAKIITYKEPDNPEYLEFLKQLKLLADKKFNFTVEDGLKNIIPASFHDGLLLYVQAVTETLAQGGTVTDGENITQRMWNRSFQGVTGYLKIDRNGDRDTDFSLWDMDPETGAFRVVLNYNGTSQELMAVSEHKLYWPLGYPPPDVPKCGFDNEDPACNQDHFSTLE
T2 sequence (peptide): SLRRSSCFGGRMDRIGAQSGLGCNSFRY

T3: rat NPR1 (rNPR1) (rat, UniProt P18910 29-469, limits assumed)
T3 construct: Soluble antigen
T3 sequence: T2 sequence

T4: hNPR1-ANP complex (human, UniProt P01160 124-151, limits assumed)
T4 construct: hNPR1 antigen in the presence of ANP; also called hNPR1 + 100 nM ANP
T4 sequence: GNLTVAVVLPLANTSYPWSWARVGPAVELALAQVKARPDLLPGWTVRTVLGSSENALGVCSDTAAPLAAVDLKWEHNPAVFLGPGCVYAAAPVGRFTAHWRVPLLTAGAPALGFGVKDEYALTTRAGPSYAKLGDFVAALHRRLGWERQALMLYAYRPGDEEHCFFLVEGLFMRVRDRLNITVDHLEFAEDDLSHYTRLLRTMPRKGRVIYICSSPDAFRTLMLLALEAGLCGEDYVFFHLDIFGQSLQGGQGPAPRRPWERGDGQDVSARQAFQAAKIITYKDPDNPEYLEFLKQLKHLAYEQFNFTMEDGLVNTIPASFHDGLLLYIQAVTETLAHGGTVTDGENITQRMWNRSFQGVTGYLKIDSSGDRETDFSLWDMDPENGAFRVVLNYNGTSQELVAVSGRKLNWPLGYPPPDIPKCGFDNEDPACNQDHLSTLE
T4 sequence (peptide): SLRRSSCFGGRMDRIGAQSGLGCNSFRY

T5: human Natriuretic Peptide Receptor 1 (hNPR1) (human, UniProt P16066 33-473, limits assumed)
T5 construct: pannings used NPR1-hFc; also called NPR1-hFc
T5 sequence: T4 sequence

B1: XX16 (anti-NPR1 IgG) (antibody, V domains shown)
VH: EVQLLESGGGLVQPGGSLRLSCAASGFTFSSYWMNWVRQAPGKGLEWVSVIESKGNYIFYADSVKGRFTISRDNSKNTLYLQMNSLRAEDTAVYYCARDRYSMIYSYGAGAFDYWGQGTLVTVSS
VL: DIQMTQSPSSLSASVGDRVTITCRASQGISSYLAWYQQKPGKAPKLLIYTASTLQSGVPSRFSGSGSGTDFTLTISSLQPEDFATYYCQQTWRKPRTFGQGTKVEIK
B2: XX18 (IgG) (antibody, V domains shown)
VH: B1 VH
VL: B1 VL with T91E, R93A
B3: XX15 (IgG) (antibody, V domains shown)
VH: B1 VH
VL: B1 VL with T91E, R93V
B4: ZZ17 (FabCys format) (Fab, V domains shown)
VH: EVQLLESGGGLVQPGGSLRLSCAASGFTFSDYAISWVRQAPGKGLEWVSSISGGGYHTQYAGSVKGRFTISRDNSKNTLYLQMNSLRAEDTAVYYCARPYLGDRRSYGFDHWGQGTLVTVSS
VL: QSALTQPASVSGSPGQSITISCTGTSSDVGSYNLVSWYQQHPGKAPKLMIYEGSKRPSGVSNRFSGSKSGNTASLTISGLQAEDEADYYCSSYGFHIVVVVFGGGTKLTVL
notes: Monovalent FabCys
B5: ZZ05 (FabCys format) (Fab, V domains shown)
VH: EVQLVQSGAEVKKPGESLKISCKGSGYSFTSYWISWVRQMPGKGLEWMGIIYPGTSYTRYSPSFQGQVTISADKSISTAYLQWSSLKASDTAMYYCARGSLPGLLGFDHWGQGTLVTVSS
VL: QSVLTQPPSVSGAPGQRVTISCTGSSSNIGAGYDVHWYQQLPGTAPKLLIYGNSNRPNGVPDRFSGSKSGTSASLAITGLQAEDEADYYCQSYGAFPRFVVFGGGTKLTVL
notes: Monovalent FabCys

Key:
human NPR2 on CHO cells = molecular target: T1, human NPR2 on CHO cells; assay: cell-based or functional assay
rNPR1-ANP complex = molecular target: T2, rNPR1-ANP complex; assay: SET, FabCys
rat NPR1 (rNPR1) = molecular target: T3, rat NPR1 (rNPR1); assay: SET, FabCys
hNPR1-ANP complex = molecular target: T4, hNPR1-ANP complex; assay: SET, FabCys
[1] = molecular target: T5, human Natriuretic Peptide Receptor 1 …; assay: SET, FabCys

Binder | cGMP generation EC50 (human NPR2 on CHO cells) | cGMP generation Y max (% of ANP) (human NPR2 on CHO cells) | also measured
B1 | > 500 nM | < 1 % of ANP | –
B2 | > 500 nM | < 1 % of ANP | –
B3 | > 500 nM | < 1 % of ANP | –
B4 | – | – | Kd (rNPR1-ANP complex): 36 nM; Kd (rat NPR1 (rNPR1)): 52 nM
B5 | – | – | Kd (hNPR1-ANP complex): 1.2 nM; Kd [1]: 0.74 nM
